PMC4776140, “Stimulation of translation by human Unr requires cold shock domains 2 and 4, and correlates with poly(A) binding protein interaction” (Scientific Reports, 2016)

Molecular target: T1, GST-tagged PABP1 (UniProt P11940 1-636)
T1 construct: also called GST-PABP1; source: E. coli BL21(DE3) from pGEX2T, purified (glutathione Sepharose 4B)
Test: pull-down; as the GST pull-down, with 0.1 mg/ml RNase A added to the TnT reaction, 30 min at 30 °C before pull down; value relative to no RNase A
Conditions: one partner purified

B1: wild type Unr, in vitro translated, 35S-labelled (natural protein, human, UniProt O75534-2 1-767, looked up)
chain: MSFDPNLLHNNGHNGYPNGTSAALRETGVIEKLLTSYGFIQCSERQARLFFHCSQYNGNLQDLKVGDDVEFEVSSDRRTGKPIAVKLVKIKQEILPEERMNGQEVFYLTYTPEDVEGNVQLETGDKINFVIDNNKHTGAVSARNIMLLKKKQARCQGVVCAMKEAFGFIERGDVVKEIFFHYSEFKGDLETLQPGDDVEFTIKDRNGKEVATDVRLLPQGTVIFEDISIEHFEGTVTKVIPKVPSKNQNDPLPGRIKVDFVIPKELPFGDKDTKSKVTLLEGDHVRFNISTDRRDKLERATNIEVLSNTFQFTNEAREMGVIAAMRDGFGFIKCVDRDVRMFFHFSEILDGNQLHIADEVEFTVVPDMLSAQRNHAIRIKKLPKGTVSFHSHSDHRFLGTVEKEATFSNPKTTSPNKGKEKEAEDGIIAYDDCGVKLTIAFQAKDVEGSTSPQIGDKVEFSISDKQRPGQQVATCVRLLGRNSNSKRLLGYVATLKDNFGFIETANHDKEIFFHYSEFSGDVDSLELGDMVEYSLSKGKGNKVSAEKVNKTHSVNGITEEADPTIYSGKVIRPLRSVDPTQTEYQGMIEIVEEGDMKGEVYPFGIVGMANKGDCLQKGESVKFQLCVLGQNAQTMAYNITPLRRATVECVKDQFGFINYEVGDSKKLFFHVKEVQDGIELQAGDEVEFSVILNQRTGKCSACNVWRVCEGPKAVAAPRPDRLVNRLKNITLDDASAPRLMVLRQPRGPDNSMGFGAERKIRQAGVID
modifications: radiolabelled with [35S] methionine
notes: numbers count on: Unr protein isoform 2; Same pET21d plasmids as for the histidine-tagged recombinant Unr; also called wt Unr; CSDE1; source: in vitro transcribed/translated from pET21d plasmid (TnT Quick Coupled System, Promega), not purified
Question: Which “percent pull-down with RNase A relative to no RNase A” value does the source give for B1 here?
Answer: 79%
